T1: TNFR1 (Homo sapiens, UniProt P19438)
T1 chain: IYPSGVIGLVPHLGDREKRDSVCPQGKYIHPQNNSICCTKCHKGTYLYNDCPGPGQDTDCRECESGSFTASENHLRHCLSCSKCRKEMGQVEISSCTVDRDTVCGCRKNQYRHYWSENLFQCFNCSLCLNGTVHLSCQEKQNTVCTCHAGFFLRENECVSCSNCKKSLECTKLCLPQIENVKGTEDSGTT


Target: T1, TNFR1
Experiment: yeast display SC50

Binder | apparent Kd (screen)
T2S (designed binder) MSLQELLREEALRRAEAEAFRYALELLAEKFPEQKEYLLDLAEEIESQIRSLSGVDVEDVRKFLDKEWAWVKELLAEHPAELAEVEAARAARLAELRAEVEAKVAA | 653 pM
A98M (designed binder) MTLQELLREEALRRAEAEAFRYALELLAEKFPEQKEYLLDLAEEIESQIRSLSGVDVEDVRKFLDKEWAWVKELLAEHPAELAEVEAARAARLAELRMEVEAKVAA | 653 pM
I45V (designed binder) MTLQELLREEALRRAEAEAFRYALELLAEKFPEQKEYLLDLAEEVESQIRSLSGVDVEDVRKFLDKEWAWVKELLAEHPAELAEVEAARAARLAELRAEVEAKVAA | 593 pM
L74W (designed binder) MTLQELLREEALRRAEAEAFRYALELLAEKFPEQKEYLLDLAEEIESQIRSLSGVDVEDVRKFLDKEWAWVKEWLAEHPAELAEVEAARAARLAELRAEVEAKVAA | 189 pM
V104S (designed binder) MTLQELLREEALRRAEAEAFRYALELLAEKFPEQKEYLLDLAEEIESQIRSLSGVDVEDVRKFLDKEWAWVKELLAEHPAELAEVEAARAARLAELRAEVEAKSAA | 869 pM
E33I (designed binder) MTLQELLREEALRRAEAEAFRYALELLAEKFPIQKEYLLDLAEEIESQIRSLSGVDVEDVRKFLDKEWAWVKELLAEHPAELAEVEAARAARLAELRAEVEAKVAA | 718 pM
E81G (designed binder) MTLQELLREEALRRAEAEAFRYALELLAEKFPEQKEYLLDLAEEIESQIRSLSGVDVEDVRKFLDKEWAWVKELLAEHPAGLAEVEAARAARLAELRAEVEAKVAA | 539 pM
D59N (designed binder) MTLQELLREEALRRAEAEAFRYALELLAEKFPEQKEYLLDLAEEIESQIRSLSGVDVENVRKFLDKEWAWVKELLAEHPAELAEVEAARAARLAELRAEVEAKVAA | 653 pM
S53W (designed binder) MTLQELLREEALRRAEAEAFRYALELLAEKFPEQKEYLLDLAEEIESQIRSLWGVDVEDVRKFLDKEWAWVKELLAEHPAELAEVEAARAARLAELRAEVEAKVAA | 13800 pM
A106D (designed binder) MTLQELLREEALRRAEAEAFRYALELLAEKFPEQKEYLLDLAEEIESQIRSLSGVDVEDVRKFLDKEWAWVKELLAEHPAELAEVEAARAARLAELRAEVEAKVAD | 1050 pM
L27T (designed binder) MTLQELLREEALRRAEAEAFRYALELTAEKFPEQKEYLLDLAEEIESQIRSLSGVDVEDVRKFLDKEWAWVKELLAEHPAELAEVEAARAARLAELRAEVEAKVAA | 539 pM
A106G (designed binder) MTLQELLREEALRRAEAEAFRYALELLAEKFPEQKEYLLDLAEEIESQIRSLSGVDVEDVRKFLDKEWAWVKELLAEHPAELAEVEAARAARLAELRAEVEAKVAG | 956 pM
V100G (designed binder) MTLQELLREEALRRAEAEAFRYALELLAEKFPEQKEYLLDLAEEIESQIRSLSGVDVEDVRKFLDKEWAWVKELLAEHPAELAEVEAARAARLAELRAEGEAKVAA | 718 pM
E84K (designed binder) MTLQELLREEALRRAEAEAFRYALELLAEKFPEQKEYLLDLAEEIESQIRSLSGVDVEDVRKFLDKEWAWVKELLAEHPAELAKVEAARAARLAELRAEVEAKVAA | 869 pM
E77P (designed binder) MTLQELLREEALRRAEAEAFRYALELLAEKFPEQKEYLLDLAEEIESQIRSLSGVDVEDVRKFLDKEWAWVKELLAPHPAELAEVEAARAARLAELRAEVEAKVAA | 405 pM
A11E (designed binder) MTLQELLREEELRRAEAEAFRYALELLAEKFPEQKEYLLDLAEEIESQIRSLSGVDVEDVRKFLDKEWAWVKELLAEHPAELAEVEAARAARLAELRAEVEAKVAA | 446 pM
E5L (designed binder) MTLQLLLREEALRRAEAEAFRYALELLAEKFPEQKEYLLDLAEEIESQIRSLSGVDVEDVRKFLDKEWAWVKELLAEHPAELAEVEAARAARLAELRAEVEAKVAA | 718 pM
Y37V (designed binder) MTLQELLREEALRRAEAEAFRYALELLAEKFPEQKEVLLDLAEEIESQIRSLSGVDVEDVRKFLDKEWAWVKELLAEHPAELAEVEAARAARLAELRAEVEAKVAA | 24400 pM
A42G (designed binder) MTLQELLREEALRRAEAEAFRYALELLAEKFPEQKEYLLDLGEEIESQIRSLSGVDVEDVRKFLDKEWAWVKELLAEHPAELAEVEAARAARLAELRAEVEAKVAA | 490 pM
L27V (designed binder) MTLQELLREEALRRAEAEAFRYALELVAEKFPEQKEYLLDLAEEIESQIRSLSGVDVEDVRKFLDKEWAWVKELLAEHPAELAEVEAARAARLAELRAEVEAKVAA | 1540 pM
V100T (designed binder) MTLQELLREEALRRAEAEAFRYALELLAEKFPEQKEYLLDLAEEIESQIRSLSGVDVEDVRKFLDKEWAWVKELLAEHPAELAEVEAARAARLAELRAETEAKVAA | 490 pM

Other lines, results leading:

apparent Kd (screen) | Binder
490 pM | E5S (designed binder) MTLQSLLREEALRRAEAEAFRYALELLAEKFPEQKEYLLDLAEEIESQIRSLSGVDVEDVRKFLDKEWAWVKELLAEHPAELAEVEAARAARLAELRAEVEAKVAA
490 pM | L82V (designed binder) MTLQELLREEALRRAEAEAFRYALELLAEKFPEQKEYLLDLAEEIESQIRSLSGVDVEDVRKFLDKEWAWVKELLAEHPAEVAEVEAARAARLAELRAEVEAKVAA
718 pM | R14M (designed binder) MTLQELLREEALRMAEAEAFRYALELLAEKFPEQKEYLLDLAEEIESQIRSLSGVDVEDVRKFLDKEWAWVKELLAEHPAELAEVEAARAARLAELRAEVEAKVAA
593 pM | V104Y (designed binder) MTLQELLREEALRRAEAEAFRYALELLAEKFPEQKEYLLDLAEEIESQIRSLSGVDVEDVRKFLDKEWAWVKELLAEHPAELAEVEAARAARLAELRAEVEAKYAA
718 pM | L26A (designed binder) MTLQELLREEALRRAEAEAFRYALEALAEKFPEQKEYLLDLAEEIESQIRSLSGVDVEDVRKFLDKEWAWVKELLAEHPAELAEVEAARAARLAELRAEVEAKVAA
869 pM | A69H (designed binder) MTLQELLREEALRRAEAEAFRYALELLAEKFPEQKEYLLDLAEEIESQIRSLSGVDVEDVRKFLDKEWHWVKELLAEHPAELAEVEAARAARLAELRAEVEAKVAA
1270 pM | A28T (designed binder) MTLQELLREEALRRAEAEAFRYALELLTEKFPEQKEYLLDLAEEIESQIRSLSGVDVEDVRKFLDKEWAWVKELLAEHPAELAEVEAARAARLAELRAEVEAKVAA
869 pM | P32D (designed binder) MTLQELLREEALRRAEAEAFRYALELLAEKFDEQKEYLLDLAEEIESQIRSLSGVDVEDVRKFLDKEWAWVKELLAEHPAELAEVEAARAARLAELRAEVEAKVAA
490 pM | E36A (designed binder) MTLQELLREEALRRAEAEAFRYALELLAEKFPEQKAYLLDLAEEIESQIRSLSGVDVEDVRKFLDKEWAWVKELLAEHPAELAEVEAARAARLAELRAEVEAKVAA
539 pM | L75D (designed binder) MTLQELLREEALRRAEAEAFRYALELLAEKFPEQKEYLLDLAEEIESQIRSLSGVDVEDVRKFLDKEWAWVKELDAEHPAELAEVEAARAARLAELRAEVEAKVAA
1160 pM | H78I (designed binder) MTLQELLREEALRRAEAEAFRYALELLAEKFPEQKEYLLDLAEEIESQIRSLSGVDVEDVRKFLDKEWAWVKELLAEIPAELAEVEAARAARLAELRAEVEAKVAA
956 pM | E9T (designed binder) MTLQELLRTEALRRAEAEAFRYALELLAEKFPEQKEYLLDLAEEIESQIRSLSGVDVEDVRKFLDKEWAWVKELLAEHPAELAEVEAARAARLAELRAEVEAKVAA
539 pM | E29L (designed binder) MTLQELLREEALRRAEAEAFRYALELLALKFPEQKEYLLDLAEEIESQIRSLSGVDVEDVRKFLDKEWAWVKELLAEHPAELAEVEAARAARLAELRAEVEAKVAA
2050 pM | F20A (designed binder) MTLQELLREEALRRAEAEAARYALELLAEKFPEQKEYLLDLAEEIESQIRSLSGVDVEDVRKFLDKEWAWVKELLAEHPAELAEVEAARAARLAELRAEVEAKVAA
